Experiment [1] has as its target T1, PIP4K2A on the HuProt human proteome microarray (human, UniProt P48426 1-406).
T1 construct: PIP4K2A, human; spotted on the array as N-terminal GST fusion; source: bought: HuProt v4.0 20K Human Proteome Microarray (CDI Laboratories), purified human proteins; not shown: GST, N-terminal, kept
T1 sequence (looked up): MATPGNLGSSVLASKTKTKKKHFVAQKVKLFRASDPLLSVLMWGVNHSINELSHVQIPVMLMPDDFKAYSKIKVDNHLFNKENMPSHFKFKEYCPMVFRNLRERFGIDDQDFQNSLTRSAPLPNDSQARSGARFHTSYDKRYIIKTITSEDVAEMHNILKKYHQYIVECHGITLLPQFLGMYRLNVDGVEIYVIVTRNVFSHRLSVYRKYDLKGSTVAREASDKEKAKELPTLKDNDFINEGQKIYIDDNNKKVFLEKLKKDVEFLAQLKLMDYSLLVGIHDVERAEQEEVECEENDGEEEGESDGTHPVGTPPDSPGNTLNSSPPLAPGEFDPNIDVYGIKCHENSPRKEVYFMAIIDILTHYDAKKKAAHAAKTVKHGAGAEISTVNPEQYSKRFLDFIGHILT
Description: peptide or protein array; Cy3-tagged His-WDR73 incubated on the HuProt v4.0 20K Human Proteome Microarray (purified human proteins as N-terminal GST fusions) overnight at 4 °C, washed, scanned; candidates by Z-score > 3. As to conditions: both partners purified.

For experiment [2], the target named is T2, PIP4K2C on the HuProt human proteome microarray (human, UniProt Q8TBX8 1-421).
T2 construct: PIP4K2C, phospholipid kinase, human; spotted on the array as N-terminal GST fusion; source: bought: HuProt v4.0 20K Human Proteome Microarray (CDI Laboratories), purified human proteins; not shown: GST, N-terminal, kept
T2 sequence (looked up): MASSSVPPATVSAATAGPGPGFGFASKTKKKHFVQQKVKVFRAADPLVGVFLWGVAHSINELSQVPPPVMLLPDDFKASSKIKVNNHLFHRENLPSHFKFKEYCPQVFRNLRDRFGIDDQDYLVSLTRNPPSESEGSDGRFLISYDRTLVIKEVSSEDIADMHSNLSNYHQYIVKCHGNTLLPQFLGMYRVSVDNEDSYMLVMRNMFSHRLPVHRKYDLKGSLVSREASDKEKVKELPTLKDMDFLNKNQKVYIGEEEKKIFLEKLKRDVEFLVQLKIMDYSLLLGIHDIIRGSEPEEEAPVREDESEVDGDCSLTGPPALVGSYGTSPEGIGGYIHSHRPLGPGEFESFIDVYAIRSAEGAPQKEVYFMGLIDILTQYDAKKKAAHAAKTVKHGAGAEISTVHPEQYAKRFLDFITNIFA
The experiment is described as above. As to conditions: both partners purified.

B1: Cy3-tagged His-WDR73 (natural protein, human, UniProt Q6P4I2 1-378, looked up)
chain: MDPGDDWLVESLRLYQDFYAFDLSGATRVLEWIDDKGVFVAGYESLKKNEILHLKLPLRLSVKENKGLFPERDFKVRHGGFSDRSIFDLKHVPHTRLLVTSGLPGCYLQVWQVAEDSDVIKAVSTIAVHEKEESLWPRVAVFSTLAPGVLHGARLRSLQVVDLESRKTTYTSDVSDSEELSSLQVLDADTFAFCCASGRLGLVDTRQKWAPLENRSPGPGSGGERWCAEVGSWGQGPGPSIASLGSDGRLCLLDPRDLCHPVSSVQCPVSVPSPDPELLRVTWAPGLKNCLAISGFDGTVQVYDATSWDGTRSQDGTRSQVEPLFTHRGHIFLDGNGMDPAPLVTTHTWHPCRPRTLLSATNDASLHVWDWVDLCAPR
modifications: labeled with Cy3 (CyDye Protein Labelling CY3 MONO 5-PACK, GE)
notes: WDR73 (WD40-repeat-containing protein), human; Probe of the HuProt microarray; also called recombinant His-WDR73 fusion protein; purified human WDR73 protein; source: recombinant, purified by MerryBio Co., Ltd
For the molecule B1, the binding result in experiment [1] and in experiment [2] was “binds” in each case.

For the origin of these results see article PMC9598763, “WDR73 Depletion Destabilizes PIP4K2C Activity and Impairs Focal Adhesion Formation in Galloway–Mowat Syndrome” (Biology, 2022).
